Kd data for 40 sequences are collected here from the Immune Epitope Database (IEDB).

Common to all, as to assay: IEDB peptide-MHC binding, purified MHC/competitive/radioactivity; filed as Kd, often an IC50 or EC50 that approximates it; ≥ and ≤ were set here for values at or beyond the usual limits of such assays
Experiment [1] addresses HLA-A*03:01.
Experiment [2] has as its target HLA-A*11:01.
The target of experiment [3] is HLA-A*31:01.
Experiment [4] has as its target HLA-A*33:01.
Experiment [5] has as its target HLA-A*68:01.
Setting [6] is: source organism: Vaccinia virus WR.
Where [7] appears, read: source organism: SARS coronavirus Tor2.
The mark [8] stands for this setting: source organism: Mammarenavirus brazilense.
The mark [9] stands for this setting: source organism: Dengue virus 1 Brazil/97-11/1997.
The mark [10] stands for this setting: source organism: Dengue virus 2 Jamaica/1409/1983.
[11] abbreviates: source organism: Dengue virus 3 Martinique/1243/1999.
[12] abbreviates: source organism: Dengue virus 4 Philippines/H241/1956.
Where [13] appears, read: source organism: Dengue virus 1 Nauru/West Pac/1974.

A word on the Kd: it is a measure of binding affinity in units of concentration. Regarding QQLEDIFMR, the Kd turned out to be 2710 nM in experiment [1] (setting [6]); 13400 nM in experiment [2] (setting [6]); 1190 nM in experiment [3] (setting [6]); 4070 nM in experiment [4] (setting [6]); 5480 nM in experiment [5] (setting [6]).

For KTNSTVDVR, the Kd amounted to 1880 nM in experiment [1] (setting [6]); 88.1 nM in experiment [2] (setting [6]); 11 nM in experiment [3] (setting [6]); 13300 nM in experiment [4] (setting [6]); 19.9 nM in experiment [5] (setting [6]).

For the sequence EFVMCLEAK, the Kd is ≥ 54200 nM in experiment [1] (setting [6]); 965 nM in experiment [2] (setting [6]); 9760 nM in experiment [3] (setting [6]); 153 nM in experiment [4] (setting [6]); 267 nM in experiment [5] (setting [6]).

For LMPILTLTR, the Kd in experiment [1] (setting [7]) is 102 nM; in experiment [2] (setting [7]) it was 1130 nM; in experiment [3] (setting [7]), 723 nM; in experiment [4] (setting [7]), 15000 nM; in experiment [5] (setting [7]), 1720 nM.

For the sequence VTDLENRLKK, the Kd in experiment [1] (setting [6]) was 291 nM; in experiment [2] (setting [6]), 14.5 nM; in experiment [3] (setting [6]) it was ≥ 37700 nM; in experiment [4] (setting [6]) it was ≥ 70000 nM; in experiment [5] (setting [6]) it was ≥ 31700 nM.

Take CEMNHVNSMH: the Kd in experiment [5] (setting [8]) was ≥ 48100 nM.

With WSYYCAGLK, in experiment [1] (setting [9]), the Kd was determined as 12.2 nM.

With DGCWYGMEIR, in experiment [4] (setting [10]), the Kd turned out to be 154 nM.

As to KIKQDVRDK, the Kd in experiment [1] (setting [6]) is 241 nM; in experiment [2] (setting [6]), 19800 nM; in experiment [3] (setting [6]) it was 9940 nM; in experiment [4] (setting [6]), ≥ 77700 nM; in experiment [5] (setting [6]), ≥ 24900 nM.

As for RSTIFDIVSK, the Kd was determined as 81.3 nM in experiment [1] (setting [6]); 1.97 nM in experiment [2] (setting [6]); 222 nM in experiment [3] (setting [6]); 6500 nM in experiment [4] (setting [6]); 79.2 nM in experiment [5] (setting [6]).

On to DILTYNKTSK, for which the Kd is 2320 nM in experiment [1] (setting [6]); ≥ 21100 nM in experiment [2] (setting [6]); ≥ 38100 nM in experiment [3] (setting [6]); 1760 nM in experiment [4] (setting [6]); 2970 nM in experiment [5] (setting [6]).

As to YFSFKKCLVY, the Kd in experiment [1] (setting [6]) was determined as 33 nM; in experiment [2] (setting [6]), 107 nM; in experiment [3] (setting [6]), 2780 nM; in experiment [4] (setting [6]), 9060 nM; in experiment [5] (setting [6]) it was 578 nM.

Turning to IVPFWITAIY, the Kd in experiment [1] (setting [7]) was 71 nM; in experiment [2] (setting [7]) it was 1020 nM; in experiment [3] (setting [7]) it was 1320 nM; in experiment [4] (setting [7]) it was 2360 nM; in experiment [5] (setting [7]), 178 nM.

Turning to LLSINSSFY, the Kd in experiment [1] (setting [6]) is 986 nM; in experiment [2] (setting [6]) it was 479 nM; in experiment [3] (setting [6]), 2390 nM; in experiment [4] (setting [6]), 6340 nM; in experiment [5] (setting [6]), 3460 nM.

Take FMRFFQLLR: the Kd in experiment [1] (setting [6]) was 141 nM; in experiment [2] (setting [6]) it was 354 nM; in experiment [3] (setting [6]), 0.668 nM; in experiment [4] (setting [6]) it was 1.97 nM; in experiment [5] (setting [6]), 11.7 nM.

For the sequence VSAQNISFK, the Kd in experiment [1] (setting [6]) is 14.6 nM; in experiment [2] (setting [6]), 9.62 nM; in experiment [3] (setting [6]), 1570 nM; in experiment [4] (setting [6]), ≥ 33900 nM; in experiment [5] (setting [6]) it was 70.6 nM.

Take RIVTVTTKDY: the dissociation constant Kd is 427 nM in experiment [1] (setting [6]); 600 nM in experiment [2] (setting [6]); 18300 nM in experiment [3] (setting [6]); ≥ 70000 nM in experiment [4] (setting [6]); 1550 nM in experiment [5] (setting [6]).

For EMGLLETTKR, the Kd in experiment [4] (setting [11]) came out at 58.2 nM.

On to GQLKLNWFK, for which the Kd in experiment [2] (setting [10]) worked out at 28.1 nM.

For KKKNPRLCTR, in experiment [3] (setting [12]), the Kd was found to be 1040 nM.

Consider IAARGYISTR, for which, in experiment [5] (setting [10]), the Kd was 12 nM.

In the case of YVSAITQAER, the Kd worked out at 104 nM in experiment [3] (setting [12]) and 14.3 nM in experiment [5] (setting [12]).

For the sequence GVTLFFLSGR, the Kd is ≥ 70000 nM in experiment [3] (setting [13]) and 56.2 nM in experiment [4] (setting [13]).

For the sequence GTILIKVEYK, the Kd stood at 69.2 nM in experiment [2] (setting [11]) and 38.2 nM in experiment [5] (setting [11]).

In the case of TTTIFAGHLK, the Kd stood at 22.7 nM in experiment [2] (setting [9]) and 8.88 nM in experiment [5] (setting [9]).

As to EFWKLVDRER, the Kd in experiment [4] (source organism: Dengue virus 3 Sri Lanka/1266/2000) was 2.92 nM.

As to TLLVWHTWQK, the Kd in experiment [1] (setting [11]) was determined as 45.5 nM.

FVVTLIPLCR: the Kd in experiment [4] (setting [12]) is 11.8 nM; in experiment [5] (setting [12]), 3.1 nM.

On to NYKERMVTFK, for which the Kd in experiment [4] (setting [12]) was found to be 1400 nM.

As for LMIVARHER, the Kd in experiment [3] (setting [12]) was 5.18 nM; in experiment [4] (setting [12]), 116 nM.

Take ETKGVERLKR: the Kd in experiment [4] (setting [11]) was determined as 336 nM; in experiment [5] (setting [11]), 14.2 nM.

MVLLQMEDK: the Kd in experiment [2] (setting [10]) is 2010 nM.

ILFEEVMRGK: in experiment [1] (setting [11]), the Kd turned out to be 8.96 nM.

For the sequence VAAEMEEALR, the Kd in experiment [5] (setting [10]) is 128 nM.

On to DNQKLSYLK, for which the Kd was ≥ 78000 nM in experiment [1] (setting [8]), 2650 nM in experiment [3] (setting [8]), 8370 nM in experiment [4] (setting [8]) and 7480 nM in experiment [5] (setting [8]).

Turning to MVGANASDR, the Kd in experiment [5] (source organism: Dengue virus 1 Singapore/S275/1990) amounted to 45.5 nM.

Regarding NIPTAIQQVR, the Kd in experiment [5] (setting [11]) is 72.4 nM.

For FLLNISYLCH, the Kd in experiment [1] (setting [8]) was 11800 nM; in experiment [2] (setting [8]), ≥ 46600 nM; in experiment [3] (setting [8]), 5830 nM; in experiment [4] (setting [8]), 5.32 nM.

Take ALTLHWFRK: the Kd in experiment [1] (setting [12]) stood at 15 nM; in experiment [2] (setting [12]) it was 100 nM.

Regarding VTFKNAHAK, the Kd in experiment [1] (setting [11]) turned out to be 7.94 nM; in experiment [2] (setting [11]) it was 58.4 nM; in experiment [5] (setting [11]) it was 58.4 nM.
